40 sequences from the nanobody polyreactivity screen of Harvey et al. (2022) can be followed below.

A short description of this series: yeast display, Sf9 membrane polyspecificity reagent, FACS + sequencing; frameworks hold sequencing errors. In short, it runs like this: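 After 36–48 hours of galactose induction, yeast (Saccharomyces cerevisiae BJ5465) displaying a synthetic nanobody library were stained at 4 °C for 1 hour with 10% biotinylated, detergent-solubilized Sf9 membrane reagent. Streptavidin microbeads enriched the stained cells before FACS sorting into low and high (top ~1%) gates on anti-HA and streptavidin fluorescence. Each clone's polyreactivity label reflects its gate of origin.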
As for “QVQLVESGAGLVQAGGSLRLICAASGRTFYPNAMGWYRQAPGKERELVAAITYSGTRTYYADSVKGRFTISRDNAKNTVYLQMNSLKPEDTAVYYCAAVVGKIGFNYWGQGTQVTVSS”, the “polyreactivity (PSR sort gate)” value is reported as “high polyreactivity”. The entry for “QVQLVESGGGLDQAGGSLRLSCAASGSIFEKYAMGWYRQAPGKERELVAGISRSGGSTYYADSVKGRFTISRDNAKNTVYLQMNSLKLEDTAFYFCAARYTRYGSFYGFGYWGQGTQVTVSS” is “high polyreactivity”. As for “QVQIVESGGGLVQAGGSLRLSCAASGSIFSYYAMGWYRQAPGKERELVAGITGGGSTDYADSVKGRFTISRDNAKITVYLQMISLKPEDTAVYYCSTDGKPSFYSFDYCGQGTQVTVSS”, the “polyreactivity (PSR sort gate)” value is “low polyreactivity”.

Regarding “QVQLVESGGGLVQAGGSLRLSCAASGFTFNYYPMGWYRQAPGKERELVAAIDSGGNTYYADSVKGRFTISRDNAKNTVYLQMNSLKPEDTAVYYCAAYRDYQYDFWGQGTQVTVSS”, the “polyreactivity (PSR sort gate)” value is “low polyreactivity”. Turning to “QVQLVESGGGLVQAGGSLRLTCAASGNTFYGKTIGWYRQAPGKERELVAAIRFTGGSTTYADSVKGRFTISRDNAKITVYLQLNRLKPEDTAVYYCNTVWVSFSSIYHEYDYWGQGTQVTVSS”, the “polyreactivity (PSR sort gate)” value is given as “low polyreactivity”. In the case of “QVQLVESGGGLVQAGGSLRLSCAASGRIYYRYGMGWYRQAPGKERELVAAISRTGGSTYYADSVKGRFTISRDNAKNTVYLQMNSLIPEDTAVYYCNATSNYRYDYWGQGTQVTVSS”, the “polyreactivity (PSR sort gate)” value is on record as “low polyreactivity”. Next, “QVQLVESGGGLVQAGGSLRLSCAASGSIFIGYAMGWYRQAPGKERELVASIRNGGSTNYADSVKGRFTITRDNAKNTVYLQMNSLKPEDTAVYYCAGRYPVFLVSFGFDYWGQGTQVTVSS”: “low polyreactivity”; “QVQLVESGGGLVQAGGSLRISCAASGRTIDSYAMGWYRQAPGKERELVAAISWGGGSTYYADSVKGRFTISRDNAKNTVYLQMNSLKPEDTAVYYCAARWNYTEFDYWGQGTQVTVSS”: “low polyreactivity”. Next, “QVQLVESGGGLVQAGGSLRLSCAASGITFTQYAMGWYRQAPGKERELVASITSSGDNTYYADSVKGRFTISRDNAKNTVYLQMNSLKPEDTAVYYCNARYKWSRRKPWGYWGQGTQVTVSS”: “high polyreactivity”; “QVQLVESGGGLVQAGGSLRLSCAASGRIFVVYAMGWYRQAPGKERELVAAITGGGRTNYADSVKGRFTISRDNAKNTVYLQMNSLKPEDTAVYYCAAGTRSDARRYYYWGQGTQVTVSS”: “low polyreactivity”. Take “QVQLVESGGGLDQAGGSLRLSCAASGRIFFAYAMGWYRQAPGKEREFVAAISDNDGSTFYADSVKGRFTISRDNAKNPVYLQMNSLKPEDTAVYYCNADLGYVYDYWGQGTQVTVSS”: the “polyreactivity (PSR sort gate)” value is recorded as “low polyreactivity”. With “QVQLVESGGGLVQAGGSLRLSCAASGSTFYANTMGWYRQAPGKERELVAAISRRGGRTYYADSVKGRFTISRDNAKNTVYLQMNSLKPDDTAVYYCARRGYSSRTIKRYNYWGQGTQVTVSS”, the “polyreactivity (PSR sort gate)” value was “high polyreactivity”. The entry for “QVQLEESGGGLVQAGGSLRLSCAASGSTFGYYAMGWYRQAPGKERELVAAISWSGTRTYYADSVKGRFTISRDNAKNTVYLQMNSLKPEDTAVYYCAAVYRGSYRGSYRFDDSHYDYSGQGTQVTVSS” is “high polyreactivity”; for “QVQLVESGGGIVQAGGSLRLSCAASGFIIRPYAMGWYRQAPGKERELVAAITGGGSTYYADSVKGRFTISRDNAKNTVYLQMNSLKPEDTAVYYCNADRRRRSGGFAGWHFQRNVYWGQGTQVTLSS” it is “low polyreactivity”. The entry for “QGQLVESGGGLVQAGGSLSLSCAASGFIFSGYAMGWYRQAPGKERELVAAISTRGGRTYYADSVKGRFTISRDNAKNTVYLQMNSLKPEDTAVYYCAADSLYPELDYWGQGTQVTVSS” is “high polyreactivity”. The entry for “QVQLVESGGGLVQAGGSLRLTFAASGRTFGYYAMGWSRQAPGKEREWVAAISWSGTSTYYADSVKGRFTISRDNAKNTVYLQLNSLKPEDTAVYYCNAVNVAVQWTSRYYYWGHGTQVTVSS” is “high polyreactivity”; for “QVQLVESGGGLVQAGGSLRLSCAASGRTFGVNAMGWYRQAPGKERELVASISNKGSTYYADSVKGRFTISRDNAKNTVYLQMNSLKPEDTAVYYCAADEYWSWDGTRYGVHYYYWGQGTQVTVSS” it is “low polyreactivity”; for “QVQLVESGGGLVQAGGSLRLSCAASGFIFFKYVMGWYRQAPGKERELVAAISTTGGRTYYADSVKGRFTISRDNAKNTVYLQMNSLKPEDTAVYYCAADYPVWNHGFDYWGQGTQVTVSS” it is “high polyreactivity”. As to “QVQLVESGGGLVQAGRSLRLSCAASGYTFYFYAKGWSRQAPGKDRELVASMTWRGGSPYYADSVKGRFTISRDNAKNTVYLQMNSLKPEETADYYCAKHVYYIYDYWGQGTQVTVSS”, the “polyreactivity (PSR sort gate)” value is listed as “low polyreactivity”. With “QVQLVESGGRLVQAGGSLRLSCAASGSTFTLYAMGWYRQAPGKERELVAAITWRGGSTFYADSVKGRFTISRDNAKNSVYLQMNSLKPEDTAVYYCAADYYSYVVGRIYYWGQGTQVNVSS”, the “polyreactivity (PSR sort gate)” value is on record as “high polyreactivity”. Take “QVQLVESGGGLVQAGGSLRLSCAASGYISYYYAMGWYREAPGKEREFVAGISWSGGSTYYADPVKGRFTISRDNAKNTVYLQMNSLKPEDTAVYDCAARLSRWWPPTGVHYSDRYYGGQGTQVTVSS”: the “polyreactivity (PSR sort gate)” value was “high polyreactivity”. The entry for “QVQLVESGGGLVQAGGSLRLSCAASGSIFYKNAMGWYRQAPGKERELVAAITYSGGSTYYADSVKGRFTISRDNAKNTVYLQMNSLKTEDTAVYYCAADIGVYGERREEEYDYWGQGTQVTVSS” is “low polyreactivity”; for “QVQLVESGGGLVQAGGSLRLSCAASGYTFVTYAMGWYRQAPGKERELVAAISYTGGSTYYADSEKGRFTISRDNAKNTVYLQMNSLKPEDTAVYYCNTRYSLYTKYAYYDEHDYWGQGTQVTVSS” it is “low polyreactivity”; for “QVQLVESGGGLVQAGGSLRISCAASGSIFTPNAMGWYRQAPGKERELVAAISSSSDRTYYADSVKGRFTISRDNAKNTVYLQMNSLKPEDTAVYYCNAYYRYGIQFDYWGQGTQVTVSS” it is “high polyreactivity”. Next, “QVQLQESGGGLVQAGGSLRLSSAASGSISSRDAMGWYRQAPGKEREFVATIASGTTTYYADSVKGSFTISRDNAENTVYLQTNSLKPEDTAVYYCAAPTIQIYPFYYWGQGTQVTVSS”: “high polyreactivity”. Next, “QVQLVESGGGLVQAGGSLRLSCAASGRTFSRNAMGWYRQAPGNERELLAASSWSGGRTYYADSVKGRFTISRDNAKNTFYLQMNSLKPEDTAVYYCAAGGGTGGSRYDSWGQGTQVTVSS”: “high polyreactivity”.

“QVQLVESGGGLVQAGGSLRLSCAASGRILVHNAMGWYRQAPGKERELVAVITARGASTYYADSVKGRFTISRDNAKNTVYLQMNSLKPEDTAVYYCATDKRPKYYNQYDYWGQGTQVTVSS”: the “polyreactivity (PSR sort gate)” value is on record as “low polyreactivity”.

Take “QVQLVESGGGLVQAGGSLRLSCAASGSIFLGYAMGWYRQAPGKERELVADIDWRDGSTYYADSVKGRFTISRDNAKTTVYLQMNSLKPEDTAVYYCAVYDNLQWDFGIYYEYDYWGQGTQVTVSS”: the “polyreactivity (PSR sort gate)” value is reported as “high polyreactivity”. As to “QVQLVESGGGLVQAGGSLRLSCSASGRTFHYYAMGWYRQAPGKERELVAVIRYSGGRTYYADSVKGRFTISRDNAKNTVYLQMNSLKPEDTAVYYCNKGRWRTDQPVYLIAFDYWGQGTQVTVTS”, the “polyreactivity (PSR sort gate)” value is given as “low polyreactivity”. “QVQLVESGGGLVQAGGSLRLSCAASGSIFPKNAMGWYRQAPGKERELVAGITSRTGRTYYADSVKGRFTISRDKAKNTVYLQMNSLKPEDTAVYYCAARIGGGPVKYDYWGQGTQVTVSS”: the “polyreactivity (PSR sort gate)” value was “high polyreactivity”. For “QVQLVESGGGLVQAGGSLRLSCAASGRIFFYNAMGWYRQAPGKETELVAAISSSGGSTSYADSVKGRFTISRDIAKNTVYLHMNSLKPEDTAVYYCAVDDPYYEKYDYWGQGTQVTVSS”, the “polyreactivity (PSR sort gate)” value is “low polyreactivity”.

As to “QVQLVESGGGLVQAGGSLRLSCAASGRIFRYNAMGWYRQAPGKERELVAALTSGGSTNYADSVKGRFTISRDNAKNTVYLQMNSLKPEDTAVYYCAVTGYRPYAYRRRYPYDYWGQGTQVTVSS”, the “polyreactivity (PSR sort gate)” value is “high polyreactivity”. As to “QVQLVESGGGLVQAGGSLRLSCAASGRTFYRNAMGWYRQAPGKETELVAAITWSGVSTYYADSVKGRFTISRDNAKNTVYIQMNSLKPEDTAVYYCSRARVLRNGHYFQLRNYDYWGQGPQVTVSS”, the “polyreactivity (PSR sort gate)” value is recorded as “high polyreactivity”. The entry for “QVQLVESGGGLVQAGGSLRLRGAASGSIFSSNAKGWCRPAPGKERELVAAICRSGGDTYYADSVKGRFTISRDNAKNTVYLQMNSLKPVDTAVYYCAARNSYGGPTYEHYYWGQGTQVSVSS” is “high polyreactivity”. Consider “QVQLVESGGGIVQAGGSLRLSCADSGITFKYYAMGWYRQAPGKERQWVAAISRSGGSTYYADSVKGRFTISRDNAKNTVYLQMNSLIAEDTAVYYCNAELYSVYLGFGYWGQGTQVTVSS”, for which the “polyreactivity (PSR sort gate)” value is “high polyreactivity”. As for “QVQHVESGGGLVQAGGSLRLSCAASVSIFYGYAMGWSRQAPGKERELVATIRFITGSTYYADSVKGRFTISRDNAKNTVYLQMNSRKPEDTAVYYCAAVYVGYYDNYDYWGQGTQVTVSS”, the “polyreactivity (PSR sort gate)” value was “low polyreactivity”. The entry for “QVQHVESGGGLVQAGGSLRLSCSASGFTLTAYAMGWSRQPPGKEREFVAAISTSGTRTYYADSVKGRFTISRDNAKNTVYLQMNSLKQEDTAVYYCAARYSGYQYWKFNYWGQGTQVTVSS” is “high polyreactivity”; for “QVQLVESGGGLVQAGGSLRLSCAASGSTFTGYAMGWYRQAPGKERELVAAISRSVGRTYYADSVKGRFTISRDNAKNTVYLQMNSLKPEDTAVYYCAADVYLTGSRNYYWGQGTQVTVSS” it is “high polyreactivity”.

“QVQLQESGSGLVQAGGSLRLSCAAIGAIFPAYLMGWYRQAPGKERELVAGISYGSITYCADSVKGRFNISRDNAKNTVYLQMNSLKPEYTAVYYCAVWRPGGDEYYYWGQGTQVTVSS”: the “polyreactivity (PSR sort gate)” value is “low polyreactivity”. Take “QVQLVESGGGLVQAGGSLRLSCAASGRTFTYYAMGWYRQAPGKERELVAAITWSGGSTYYADSVKGRFTISRDNAKNTVYLQMNSLKPEDTAVYYCAAVDADYYYWGQGTQVTVSS”: the “polyreactivity (PSR sort gate)” value is given as “high polyreactivity”.
